Test results published in US5985822A, “Inhibition of glial cell proliferation with N-CAM homophilic peptides” (The Scripps Research Institute, priority 1995, dated 1999).
Where “and” joins values, the source holds several entries; their conditions need not be identical. Equal entries are not always repeated.

Columns and labels:
[1] = tested on: rat forebrain astrocytes in primary culture; assay: Astrocyte proliferation assay ([3H]-thymidine incorporation normalized to [35S]-methionine); assay type: cell-based; details: for inhibition of proliferation depending on cell density: 2 μg/ml N-CAM
Protocol: Primary cultures of astrocytes were prepared from the forebrains of 4-5 day old neonatal rats. After decapitation and removal of the forebrains from the skull, the meninges were carefully peeled off, and forebrain tissue was triturated in sterile phosphate buffered saline (PBS) using firepolished pipettes. The resulting suspension of tissue fragments was incubated in Hank's balanced salt solution (Gibco BRL) with 2.5 mg/ml trypsin, 1 mM EDTA and 0.1 mg/ml DNase (Boehringer) at 37° C. for 15 minutes. […] The pellet was resuspended in serum free medium (SFM) consisting of Dulbecco's Modified Eagle Medium (D-MEM), 2 mM L-glutamine, 50 U/ml penicillin G sodium and 50 μg/ml streptomycin sulfate (all from Gibco BRL) supplemented by 10% (vol/vol) fetal bovine serum (FBS). The cells were transferred to a standard 100 mm tissue culture dish (Falcon) and incubated at 37° C. for 1-2 hours. After mild shaking, the supernatant containing unattached cells was transferred to a 100 mm collagen-coated dish. […] Cell samples were checked regularly for the expression of GFAP, a marker for astrocytes.
After cell attachment, the culture medium was exchanged for SFM. In antisense experiments, oligonucleotides were added at the same time (T=0). […] After another 12 hours (at T=60), [^3 H]-thymidine (New England Nuclear, 20 Ci/mmol) was added (0.38 μM, 10 μCi/ml). Following an additional 12 hours (T=72), the wells were drained, counts precipitated by ice-cold […] trichloroacetic acid, and the plates left to dry. Counts were solubilized overnight by adding 100 μl 1 N KOH to each well, neutralized with 100 μl 1 N HCl, transferred to liquid scintillation vials and counted in 3 ml of Beckman Ready Safe liquid scintillation cocktail on a Packard 1600 TR counter. […] In this paper, proliferation is expressed as [^3 H]-thymidine incorporation normalized to [35]-methionine incorporation and calculated as [^3 H] dpm/ [35] dpm.

[2] = tested on: dividing astrocytes in cerebral cortex, hippocampus or striatum; assay: In vivo labeling index of dividing astrocytes (BrdU with GFAP or S100) after stab lesion with infusion; design: species or system rat; details: for Labeling Index (Experimental): N-CAM 250 μg/ml, 3rd Ig domain 5 mg/ml, N-CAM peptide 1 mg/ml, 3 μl infused, n=3
Protocol: Samples were injected into the brains of rats (Wistar Albino, Male, 200-250 g, Charles River, anesthetized with xylazine (12 mg/kg) and ketamine (90 mg/kg) through a 26 gauge needle. The needle point was placed at the stereotactic coordinates of either the hippocampus, cerebral cortex or striatum (Table 2). Bilateral injections of 3-4 μl were made using an Hamilton syringe. Each animal received an infusion of either the purified rat N-CAM (250 μg/ml), the third Ig domain of chicken N-CAM (5 mg/ml), or the rat N-CAM peptide KHIFSDDSSE (SEQ ID NO 2) (1 mg/ml) in PBS into one hemisphere; the other hemisphere was infused with the random peptide (SFSISDEDHK (SEQ ID NO 9), 1 mg/ml in PBS) as a control. The experimental and control sides varied between animals and choice of side had no significant effect on the results. Three μl of each protein or peptide was infused at a rate of 0.2 μl per minute after which the needle was left in place for 5 minutes and then removed. In one experiment, a group of animals received basic fibroblast growth factor (bFGF, 450 ng) in the solutions which contained either the random peptide or the purified N-CAM.
The samples were either purified N-CAM in phosphate buffered saline (PBS), N-CAM peptide KHIFSDDSSE (SEQ. ID. NO. 2) (1 mg/ml or 10 mg/ml) in PBS, or the corresponding random peptide SFSISDEDHK (SEQ ID NO 9) (1 mg/ml) (see Example 3 above). The injection rate was about 0.2 μl/min; the needle was left in place for 5 minute after the injection. Each animal received either the purified N-CAM or the N-CAM peptide injected into one side of the brain and the corresponding structure on the other side was injected with the random peptide as a control.
Three animals were examined for each treatment and brain region described. Animals were maintained for a postinjection survival time of about 70-72 hours. During that time they received five injections of bromodeoxyuridine (Brdu) dissolved in 0.007 N NaOH (120 mg/kg, intraperitoneal). Two of the three animals that had been injected in the hippocampus received Brdu approximately 18, 28, 42, 52, and 70 hours after the stereotactic surgery. All of the animals that had been injected in the cerebral cortex or the striatum and one animal injected in the hippocampus received Brdu approximately 2, 18, 28, 42, and 52 hours after the stereotactic surgery.
Animals were perfused under anesthesia with about 30 ml of ice-cold PBS followed by about 400 ml of ice-cold […] in PBS. The brains were then removed and postfixed for 2-16 hours in 4% paraformaldehyde in PBS then placed in succeeding solutions of ascending concentrations of sucrose (12%, 18%, and 24%). The brains were then sectioned on a cryostat at a thickness of 10 μm.
Non-specific binding on the sections was blocked by incubation in 8% fetal bovine serum (FBS) in PBS. Sections were then incubated in polyclonal antibody to glial fibrillary acidic protein (GFAP; 1:100 dilution, Dako) in 0.2% Triton X-100, 8% FBS/PBS for 24 - 48 hr at 4° C. The sections were processed using a biotinylated secondary antibody and the Vectastain ABC kit (Vector), and stained with a diaminobenzidine peroxidase substrate kit from Vector or Pierce. The sections were then incubated for 6 minutes in a solution of Proteinase K (Dako), rinsed and incubated in 2 N HCL for 20 minutes at 37° C. The sections were rinsed and blocked in 8% FBS/PBS and incubated in a monoclonal antibody to Brdu (1:40 dilution, Dako), 0.01% Triton X-100, 8% fetal bovine serum/PBS for 24-48 hr at 4° C. The sections were processed using a biotinlyated secondary antibody and the Vectastain ABC kit (Vector), and stained with a VIP peroxidase substrate kit from Vector giving the Brdu positive cells a red color. The sections were then rinsed in PBS and coverslipped in glycerol/PBS.
GFAP positive cells and cells positive for both GFAP and BRDU were counted under a Zeiss Axiophot light microscope. […]

B1: N-CAM: neural cell adhesion molecule purified from early postnatal rat brains by affinity chromatography, mainly polysialylated embryonic form (protein, UniProt P13596 20-858, looked up)
Neural cell adhesion molecule …: LQVDIVPSQGEISVGESKFFLCQVAGDAKDKDISWFSPNGEKLSPNQQRISVVWNDDDSSTLTIYNANIDDAGIYKCVVTAEDGTQSEATVNVKIFQKLMFKNAPTPQEFKEGEDAVIVCDVVSSLPPTIIWKHKGRDVILKKDVRFIVLSNNYLQIRGIKKTDEGTYRCEGRILARGEINFKDIQVIVNVPPTVQARQSIVNATANLGQSVTLVCDADGFPEPTMSWTKDGEPIENEEEDDEKHIFSDDSSELTIRNVDKNDEAEYVCIAENKAGEQDASIHLKVFAKPKITYVENQTAMELEEQVTLTCEASGDPIPSITWRTSTRNISSEEKASWTRPEKQETLDGHMVVRSHARVSSLTLKSIQYTDAGEYICTASNTIGQDSQSMYLEVQYAPKLQGPVAVYTWEGNQVNITCEVFAYPSATISWFRDGQLLPSSNYSNIKIYNTPSASYLEVTPDSENDFGNYNCTAVNRIGQESLEFILVQADTPSSPSIDRVEPYSSTAQVQFDEPEATGGVPILKYKAEWKSLGEEAWHSKWYDAKEANMEGIVTIMGLKPETRYAVRLAALNGKGLGEISAATEFKTQPVREPSAPKLEGQMGEDGNSIKVNLIKQDDGGSPIRHYLVKYRALASEWKPEIRLPSGSDHVMLKSLDWNAEYEVYVVAENQQGKSKAAHFVFRTSAQPTAIPANGSPTAGLSTGAIVGILIVIFVLLLVVMDITCYFLNKCGLLMCIAVNLCGKAGPGAKGKDMEEGKAAFSKDESKEPIVEVRTEEERTPNHDGGKHTEPNETTPLTEPEKGPVETKSEPQESEAKPAPTEVKTVPNEATQTKENESKA
modifications: polysialylated embryonic form
In the case of B1, the “inhibition of proliferation depending on cell density” value ([1]; higher cell density 28×10^4 cells/cm^2, confluent) is reported as “virtually ineffective”, the “inhibition of proliferation depending on cell density” value ([1]; lower cell density 1.8×10^4 cells/cm^2) is reported as “Inhibition was maximal” and the “N-CAM Alone” value ([1]; N-CAM 2 μg/ml, parallel control of each drug experiment (Table 5)) is reported as 32.5 % of SFM Control and 34 % of SFM Control. The “maximal suppression of proliferation” value ([1]; N-CAM 10 μg/ml in SFM, 7×10^4 cells/cm^2, three preparations) was greater than 90%, the “effect on astrocyte proliferation (in words)” value ([1]; added to astrocyte cultures in SFM) was “inhibited their proliferation in a concentration dependent manner” and the “suppressive effect of N-CAM added together with growth stimulus” value ([1]; with 1% FBS or 20 ng/ml bFGF) was “suppressive effect similar in magnitude to that observed in SFM”. The “Percent Difference of labeling index, experimental vs control” value (shortened to “Percent Difference of labeling index”) ([2]; cerebral cortex) was -52.1 ± 4.5%, the “Labeling Index (Experimental)” value ([2]; cerebral cortex) was 10.2 ± 1.5% and the “effect on mitogenic effects of bFGF in vivo” value ([2]; cortical lesion, bFGF 450 ng co-infused) was “able to oppose the mitogenic effects of bFGF”. The “Percent Difference of labeling index” value ([2]; hippocampus) was -25.2 ± 1.6%, the “Labeling Index (Experimental)” value ([2]; hippocampus) was 14.6 ± 2.3% and the “inhibition of astrocyte proliferation” value ([2]; infusion into cerebral cortex at 100 μg/ml) was 0-10%. The “Percent Difference of labeling index” value ([2]; striatum) was -20.8 ± 2.1% and the “Labeling Index (Experimental)” value ([2]; striatum) was 20.7 ± 0.7%.
